The subject of the series is ThserRS (seryl-tRNA synthetase, GME12055) (Trametes hirsuta AH28-2). The experiment in a line: fluorescence polarization. To be noted: 5 mM Mg2+; 25 mM HEPES pH 6.5, 5 mM MgCl2, 150 mM KCl, 1 mM DTT, 5% glycerol, 16 C, 30 min; probe 0.5 uM (EMSA) or 40 nM (FP); further truncations of the 32-bp probe gave ….

With “lacA promoter 32-bp minimal probe (-462 to -431)”, the Kd came to 920 nM. In other words, the sub-micromolar range.

The term Kd denotes a measure of binding affinity in units of concentration. Lower therefore signals a tighter complex.
